Fewer inactive variants are shown than the library holds.
B1: TPR 5TU (parent)
chain: GGAUCUUCUCGAUCUAACAAAAAAGACAAAUCUGCCACAAAGCUUGAGAGCAUCUUCGGAUGCAGAGGCGGCAGCCUUCGGUGGCGCGAUAGCGCCAACGUUCUCAACUAUGACACGCAAAACGCGUGCUCCGUUGAAUGGAGUUUAUCAUG

Variants of: B1
Test: polymerase ribozyme fitness, log enrichment relative to wild type (log ratio); higher = more active; in vitro selection for triplet polymerase activity
Summary of the method: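 Fitness compares each genotype's enrichment to that of the wild type on a logarithmic scale, averaging replicates with inverse-variance weights. The logarithm is base 2. Enrichment came from Illumina sequencing of input and output libraries after one triplicate round of in vitro selection, which included frozen incubation at −7 °C, of PCR-built, transcribed mutant libraries of each subunit of a heterodimeric triplet polymerase ribozyme. Only genotypes with ≥10 input reads and ≥1 read per output were kept.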

First: A29U A41U U53G G88U A89G G117A
Second: A30G C76U
The “polymerase ribozyme fitness (log ratio)” value of the first is lower: at most -4.2 for the first, -3.9 for the second.

A29C U33G G34U G50C G84C G100C C108A A113U G141U and A29G U111A cannot be ordered by “polymerase ribozyme fitness (log ratio)” value: at most -4.2 for the first, at most -4.2 for the second.

Going from A30U C54A A97U C116U G117U to A30G G80A, the “polymerase ribozyme fitness (log ratio)” value rises from at most -4.2 to -3.66.

A30C C35U C54U C85U A121U and A30U G42A C85U A89G C99A A107C A122U C125A U144C C149A cannot be ordered by “polymerase ribozyme fitness (log ratio)” value: at most -4.2 for the first, at most -4.2 for the second.

A29G C43U U45A A52C C75G A91U A115G U151G and A30U C32U G48A C51U U56G C76U cannot be ordered by “polymerase ribozyme fitness (log ratio)” value: at most -4.2 for the first, at most -4.2 for the second.

A29U G94U U109A and A30U G50C U56A A66C G141A cannot be ordered by “polymerase ribozyme fitness (log ratio)” value: at most -4.2 for the first, at most -4.2 for the second.

A29U G50A C116U C129G and A29C G94A A110U G124A A147U cannot be ordered by “polymerase ribozyme fitness (log ratio)” value: at most -4.2 for the first, at most -4.2 for the second.

A29U U61A A91C C96A G128C and A29U A30U A37U A47G G50C A97U G100U A106C cannot be ordered by “polymerase ribozyme fitness (log ratio)” value: at most -4.2 for the first, at most -4.2 for the second.

A29U U44C U45A C57A A64G C76A C95A A150C and A29U A41U A47C C114G C132U cannot be ordered by “polymerase ribozyme fitness (log ratio)” value: at most -4.2 for the first, at most -4.2 for the second.

A29U A30C A49G C57U C87A G100A G141A and A29G A37U A47U U55A G84U A89G A120C G140C U144G cannot be ordered by “polymerase ribozyme fitness (log ratio)” value: at most -4.2 for the first, at most -4.2 for the second.

First: A29U G70U
Second: A29C U33G A40U G80U G94U U102C G143A U151A
The “polymerase ribozyme fitness (log ratio)” value of the first is lower: at most -4.2 for the first, -3.89 for the second.

A30U A66U C85U A106C and A29G C76G C93U cannot be ordered by “polymerase ribozyme fitness (log ratio)” value: at most -4.2 for the first, at most -4.2 for the second.

A29G A89U C96U A115C A121C G143U and A29G A30C G59C U90G C95G G133U cannot be ordered by “polymerase ribozyme fitness (log ratio)” value: at most -4.2 for the first, at most -4.2 for the second.

Going from A30U G83U G88A U109C C125U G133C to A30U A73G, the “polymerase ribozyme fitness (log ratio)” value rises from at most -4.2 to -3.78.

A30G C54U G80U A91C C103U and A30G G42U A52C C57A C96A A120G cannot be ordered by “polymerase ribozyme fitness (log ratio)” value: at most -4.2 for the first, at most -4.2 for the second.

Going from A30U A122U to A29C U44A A52U G58A C118A, the “polymerase ribozyme fitness (log ratio)” value falls from -2.62 to at most -4.2.

A30G G50U C75A U78C G94C and A30G G42A U55G G65A C76G C87G A106U G143A A147C cannot be ordered by “polymerase ribozyme fitness (log ratio)” value: at most -4.2 for the first, at most -4.2 for the second.

A30C C75G C103G and A29G G34A A49U G59U C76U C108A A119G cannot be ordered by “polymerase ribozyme fitness (log ratio)” value: at most -4.2 for the first, at most -4.2 for the second.

A30U G42A U55G C69A G126U A142C and A30U C79U G83C cannot be ordered by “polymerase ribozyme fitness (log ratio)” value: at most -4.2 for the first, at most -4.2 for the second.

A29G G58C A60C G71A C129G and A30C G67C G68A G88A C93A U135C G141C cannot be ordered by “polymerase ribozyme fitness (log ratio)” value: at most -4.2 for the first, at most -4.2 for the second.

A30G C108U U109A and A30G U53A G62U A64G cannot be ordered by “polymerase ribozyme fitness (log ratio)” value: at most -4.2 for the first, at most -4.2 for the second.

A29U G59C G62U C95U C116A and A30U A60C G62A C76A C96G U127G G143C cannot be ordered by “polymerase ribozyme fitness (log ratio)” value: at most -4.2 for the first, at most -4.2 for the second.

A30U A39G A98G C99U C105G and A29G G58C A73U G92C A98G C125A cannot be ordered by “polymerase ribozyme fitness (log ratio)” value: at most -4.2 for the first, at most -4.2 for the second.

Going from A30G G46U G68U A147C to A30G U45A A106C U135G, the “polymerase ribozyme fitness (log ratio)” value rises from at most -4.2 to -3.85.

A30C A37C A49C A52C C57G G83A A115U G143C and A30U G70A G143C cannot be ordered by “polymerase ribozyme fitness (log ratio)” value: at most -4.2 for the first, at most -4.2 for the second.

A30C G81C A138G U146A C149U and A30U G58C C76A G94C U104G G136A cannot be ordered by “polymerase ribozyme fitness (log ratio)” value: at most -4.2 for the first, at most -4.2 for the second.

A29U U77A G80A G92A U148C and A29G C105G U146G cannot be ordered by “polymerase ribozyme fitness (log ratio)” value: at most -4.2 for the first, at most -4.2 for the second.

First: A30G U45G G46C C76U C87U U135A
Second: A30G G92U A98U
The “polymerase ribozyme fitness (log ratio)” value of the first is lower: at most -4.2 for the first, -3.79 for the second.

A29G G86U G143A and A29G U45C A52C U53G U134C G136U cannot be ordered by “polymerase ribozyme fitness (log ratio)” value: at most -4.2 for the first, at most -4.2 for the second.

A29G G70A A120U G143A A150C and A30U C54U C85A G128C G140U G141A cannot be ordered by “polymerase ribozyme fitness (log ratio)” value: at most -4.2 for the first, at most -4.2 for the second.

A30U G50A C57A C75U C85A G140U G143A and A29G A41C A60U C85G G86U C116G G133C A142G A150G cannot be ordered by “polymerase ribozyme fitness (log ratio)” value: at most -4.2 for the first, at most -4.2 for the second.

Compared with A29G C93G A115U C116G C149G, A29U C35G C95G is higher in “polymerase ribozyme fitness (log ratio)” value: at most -4.2 for the first, -4.03 for the second.

A30U C35U G141U and A30U A41C G70C C93G cannot be ordered by “polymerase ribozyme fitness (log ratio)” value: at most -4.2 for the first, at most -4.2 for the second.

A30C C79G C85U A106U and A30C U31C C32A G46C G50C G58U G88C U104C A122G cannot be ordered by “polymerase ribozyme fitness (log ratio)” value: at most -4.2 for the first, at most -4.2 for the second.

A30U A37U U53A C87U and A30U G68U A73U G140U cannot be ordered by “polymerase ribozyme fitness (log ratio)” value: at most -4.2 for the first, at most -4.2 for the second.

A29U G86A A97G A142U G143A and A30U A40G G50C G67A C76A C85U A89C C132U cannot be ordered by “polymerase ribozyme fitness (log ratio)” value: at most -4.2 for the first, at most -4.2 for the second.

First: A29U A66U C79A G83A C96A A142U
Second: A30G G46A A107U
The “polymerase ribozyme fitness (log ratio)” value of the first is lower: at most -4.2 for the first, -4.03 for the second.

First: A30U C54U A73G C95A C116U
Second: A29U G59A G83C C125U
The “polymerase ribozyme fitness (log ratio)” value of the first is higher: -4.03 for the first, at most -4.2 for the second.

A30G C76U C96U and A30G C75A G94U A137C G143U A150U cannot be ordered by “polymerase ribozyme fitness (log ratio)” value: at most -4.2 for the first, at most -4.2 for the second.

A30G A47U G50C G80C C96U C103U and A29G U31A C96U C114U G140C cannot be ordered by “polymerase ribozyme fitness (log ratio)” value: at most -4.2 for the first, at most -4.2 for the second.

First: A30C U33C G67A C93G A119U
Second: A30U C54G C95A A98U A122C G141C U144C
The “polymerase ribozyme fitness (log ratio)” value of the first is higher: -3.89 for the first, at most -4.2 for the second.

A29U C51G G58C G71A A91G C95A C103G U151A G152A and A30U A52G U56G G80C G84U A98C A110U cannot be ordered by “polymerase ribozyme fitness (log ratio)” value: at most -4.2 for the first, at most -4.2 for the second.

— the RNAGym collection of RNA variant scans (doi:10.1073/pnas.2313332121)
